Test results from PMC9037914 (PLoS Pathogens, 2022).

T1: Plasmodium falciparum myosin A (P. falciparum, UniProt Q8IDR3 1-818)
T1 construct: also called PfMyoA; MyoA
T1 sequence: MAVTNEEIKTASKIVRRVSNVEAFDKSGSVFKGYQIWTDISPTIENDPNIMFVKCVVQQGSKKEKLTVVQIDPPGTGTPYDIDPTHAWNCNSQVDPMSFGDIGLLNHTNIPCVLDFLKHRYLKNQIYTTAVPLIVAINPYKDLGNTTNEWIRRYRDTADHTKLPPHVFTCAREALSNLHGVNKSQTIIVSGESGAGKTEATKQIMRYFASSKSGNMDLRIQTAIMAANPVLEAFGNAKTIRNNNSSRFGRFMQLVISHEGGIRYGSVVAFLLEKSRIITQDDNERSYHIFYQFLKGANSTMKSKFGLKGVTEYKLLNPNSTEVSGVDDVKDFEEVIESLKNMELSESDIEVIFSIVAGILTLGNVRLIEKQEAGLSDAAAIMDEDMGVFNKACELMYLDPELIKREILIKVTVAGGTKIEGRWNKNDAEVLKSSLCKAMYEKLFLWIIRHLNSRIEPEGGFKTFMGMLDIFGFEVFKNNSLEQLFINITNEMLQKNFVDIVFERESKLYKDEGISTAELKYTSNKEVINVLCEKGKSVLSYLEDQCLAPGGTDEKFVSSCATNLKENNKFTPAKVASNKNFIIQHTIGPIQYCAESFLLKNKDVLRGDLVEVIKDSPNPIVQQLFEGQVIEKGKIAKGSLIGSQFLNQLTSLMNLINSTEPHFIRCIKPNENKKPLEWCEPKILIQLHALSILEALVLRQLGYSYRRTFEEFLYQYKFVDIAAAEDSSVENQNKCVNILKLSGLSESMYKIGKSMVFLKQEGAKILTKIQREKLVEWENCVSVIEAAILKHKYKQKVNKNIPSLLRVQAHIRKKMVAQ

T2: MyoA:ELC:MTIP complex (P. falciparum, UniProt Q8IDR3;Q8IJM4;Q8I4W8)
T2 construct: also called PfMyoA with its two light chains; MyoA:MTIP:ELC complex; copies: + +
T2 sequence 1: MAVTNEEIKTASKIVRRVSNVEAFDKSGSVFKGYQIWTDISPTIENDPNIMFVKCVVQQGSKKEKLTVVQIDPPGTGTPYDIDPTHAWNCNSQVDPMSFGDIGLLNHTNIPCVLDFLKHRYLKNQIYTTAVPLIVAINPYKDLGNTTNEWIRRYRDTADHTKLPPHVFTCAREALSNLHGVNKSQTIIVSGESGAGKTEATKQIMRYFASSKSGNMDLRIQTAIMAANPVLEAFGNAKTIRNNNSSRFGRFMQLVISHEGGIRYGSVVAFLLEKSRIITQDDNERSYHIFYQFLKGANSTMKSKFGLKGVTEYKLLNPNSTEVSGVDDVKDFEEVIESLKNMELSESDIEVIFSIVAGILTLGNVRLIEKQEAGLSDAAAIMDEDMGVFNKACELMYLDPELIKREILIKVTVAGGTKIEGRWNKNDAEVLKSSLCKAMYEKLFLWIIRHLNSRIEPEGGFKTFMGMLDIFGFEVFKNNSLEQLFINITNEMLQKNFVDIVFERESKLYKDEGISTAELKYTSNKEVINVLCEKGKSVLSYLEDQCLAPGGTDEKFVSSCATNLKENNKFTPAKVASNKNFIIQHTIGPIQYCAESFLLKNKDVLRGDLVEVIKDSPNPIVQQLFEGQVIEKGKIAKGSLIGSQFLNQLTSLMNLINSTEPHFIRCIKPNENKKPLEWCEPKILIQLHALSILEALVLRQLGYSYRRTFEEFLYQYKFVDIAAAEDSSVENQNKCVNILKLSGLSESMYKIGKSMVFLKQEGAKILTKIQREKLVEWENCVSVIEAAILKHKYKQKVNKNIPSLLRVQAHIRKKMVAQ
T2 sequence 2: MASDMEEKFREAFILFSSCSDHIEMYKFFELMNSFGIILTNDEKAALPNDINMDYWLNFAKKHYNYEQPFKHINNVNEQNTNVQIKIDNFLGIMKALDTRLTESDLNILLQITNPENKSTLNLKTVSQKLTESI
T2 sequence 3: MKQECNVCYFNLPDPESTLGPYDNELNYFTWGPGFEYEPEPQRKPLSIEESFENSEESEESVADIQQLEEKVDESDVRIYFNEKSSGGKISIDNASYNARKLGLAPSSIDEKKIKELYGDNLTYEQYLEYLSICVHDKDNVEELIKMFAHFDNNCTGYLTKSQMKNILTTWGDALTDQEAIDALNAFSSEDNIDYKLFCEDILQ


Columns and labels:
Assay in all cases: cryo-EM structure
[1] = molecular target: T1, Plasmodium falciparum myosin A; conditions: both partners purified
[2] = molecular target: T2, MyoA:ELC:MTIP complex; conditions: both partners purified
[3] = molecular target: the molecule itself

Binder | binding result [1] | binding result [2] | binding result [3]
Plasmodium falciparum actin 1 filament (natural protein, source: polymerised with jasplakinolide) not shown | binds | binds | binds
Plasmodium falciparum essential light chain (natural protein, also called PfELC; ELC) MASDMEEKFREAFILFSSCSDHIEMYKFFELMNSFGIILTNDEKAALPNDINMDYWLNFAKKHYNYEQPFKHINNVNEQNTNVQIKIDNFLGIMKALDTRLTESDLNILLQITNPENKSTLNLKTVSQKLTESI | binds |  | 
